Reference: the supplement of paper PMC7125110
± gives the standard error. This sample holds only a part of the variants without activity.

B1: glmS ribozyme (parent)
chain: AUAAAAGCGCCAGAACUACAGAAAUGUAGUUGACGAGGAGGAGGUUUAUCGAAUUUUCGGCGGAUGCCUCCAAA

Experiments:
Conditions in all cases: with glucosamine-6-phosphate
glucosamine-6-phosphate [1] = variants of: B1; experiment: self-cleavage kobs at 640 uM GlcN6P; higher = faster cleavage; RNA array
Summary of the method: (§1)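 Glucosamine-6-phosphate in HEPES/KCl/Mg(OAc)2 buffer, at 40 μM to 10 mM, was flowed over barcoded ribozyme variants transcribed in situ by E. coli RNA polymerase on sequenced MiSeq chips. Tracking was through a hybridised Cy3 probe at 37 °C. kobs, kcat and KM came from exponential decay fits and weighted Michaelis–Menten fits of normalised per-tile medians.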

glucosamine-6-phosphate [2] = variants of: B1; experiment: self-cleavage kobs at 2500 uM GlcN6P; higher = faster cleavage; RNA array
Summary of the method: as §1

glucosamine-6-phosphate [3] = variants of: B1; experiment: self-cleavage kobs at 10000 uM GlcN6P; higher = faster cleavage; RNA array
Summary of the method: as §1

Variant | self-cleavage kobs at 640 uM GlcN6P (glucosamine-6-phosphate [1]) | self-cleavage kobs at 2500 uM GlcN6P (glucosamine-6-phosphate [2]) | self-cleavage kobs at 10000 uM GlcN6P (glucosamine-6-phosphate [3])
A12U C16U G63U G66C | < 1e-05 s⁻¹ | < 1e-05 s⁻¹ | –
G7A G29U C34U | < 1e-05 s⁻¹ | – | –
C11A C16U A42U | < 1e-05 s⁻¹ | – | –
C10G U30C G38U | < 1e-05 s⁻¹ | – | –
A33C G38C U55C C61G C71U | < 1e-05 s⁻¹ | < 1e-05 s⁻¹ | –
G13U U45G C67G | < 1e-05 s⁻¹ | – | –
G51A A53G C71A | < 1e-05 s⁻¹ | – | –
G32U C34A | < 1e-05 s⁻¹ | < 1e-05 s⁻¹ | < 1e-05 s⁻¹
A53G U55A U65G | 0.000667 ± 8.4e-05 s⁻¹ | 0.00174 ± 0.00031 s⁻¹ | –
U55A G60C U65A | < 1e-05 s⁻¹ | < 1e-05 s⁻¹ | –
G7A A12C U49C G62A | < 1e-05 s⁻¹ | < 1e-05 s⁻¹ | –
U2A G44U | 0.000101 ± 1.5e-05 s⁻¹ | 0.000228 ± 6.3e-05 s⁻¹ | –
G13A A53C | 4.8e-05 ± 1.4e-05 s⁻¹ | 3.79e-05 ± 1.2e-05 s⁻¹ | 0.000139 ± 1.3e-05 s⁻¹
C11A G32U A39C U54A C67G C68G | 0.00137 ± 0.00067 s⁻¹ | – | –
C11G A39U U45C U49A C50U G62C U65G | < 1e-05 s⁻¹ | – | –
G9A G13A A48G | < 1e-05 s⁻¹ | < 1e-05 s⁻¹ | –
U47C U69C | 0.000374 ± 0.00011 s⁻¹ | 0.00197 ± 0.00045 s⁻¹ | –
A14G G29U A39U | 0.00293 ± 0.0011 s⁻¹ | – | –
A15G U57A | 0.000105 ± 2e-05 s⁻¹ | 0.000107 ± 2.8e-05 s⁻¹ | 0.000392 ± 5.3e-05 s⁻¹
C58U A64C | < 1e-05 s⁻¹ | – | –
A6U C8A C11U C50G | 0.000402 ± 0.00018 s⁻¹ | 0.000125 ± 4.7e-05 s⁻¹ | –
C8G G13U A33U U57G | < 1e-05 s⁻¹ | < 1e-05 s⁻¹ | –

Variant | self-cleavage kobs at 640 uM GlcN6P (glucosamine-6-phosphate [1]) | self-cleavage kobs at 2500 uM GlcN6P (glucosamine-6-phosphate [2]) | self-cleavage kobs at 10000 uM GlcN6P (glucosamine-6-phosphate [3])
U31A G32C G60A G66A | < 1e-05 s⁻¹ | – | –
A12U U56C C71A | 5.04e-05 ± 1.6e-05 s⁻¹ | 0.00012 ± 4e-05 s⁻¹ | –
A33U A36C U45C | < 1e-05 s⁻¹ | – | –
A6U C16U C61U C71U | < 1e-05 s⁻¹ | < 1e-05 s⁻¹ | –
G43U G63U C71G | < 1e-05 s⁻¹ | < 1e-05 s⁻¹ | –
A14U A48G G63C | < 1e-05 s⁻¹ | – | –
G35C G41U A64G | < 1e-05 s⁻¹ | – | –
G66U C68G C71A | 5.91e-05 ± 2.3e-05 s⁻¹ | – | –
G9A U47A C70U | < 1e-05 s⁻¹ | – | –
A6C G43C C71U | < 1e-05 s⁻¹ | – | –
A42C G43U U57A | < 1e-05 s⁻¹ | < 1e-05 s⁻¹ | < 1e-05 s⁻¹
C8A A53U G60U | < 1e-05 s⁻¹ | < 1e-05 s⁻¹ | –
A15C G32A U55C G59U | < 1e-05 s⁻¹ | – | –
A15C C58G C70A | 5.23e-05 ± 1.5e-05 s⁻¹ | 4e-05 ± 2e-05 s⁻¹ | –
C16G A39C G41U U56C C67U | < 1e-05 s⁻¹ | – | –
C10U U49G C58A | < 1e-05 s⁻¹ | – | –
C16U G29U G40U G62C | < 1e-05 s⁻¹ | – | –
G38A G60A | < 1e-05 s⁻¹ | < 1e-05 s⁻¹ | –
G7U C10G G13C G44A U69G | < 1e-05 s⁻¹ | – | –
C10G C34G G41U U45A | < 1e-05 s⁻¹ | < 1e-05 s⁻¹ | –
C16U A39G A53C C68A | < 1e-05 s⁻¹ | – | –
G35C G60A C71U | < 1e-05 s⁻¹ | – | –

Variant | self-cleavage kobs at 640 uM GlcN6P (glucosamine-6-phosphate [1]) | self-cleavage kobs at 2500 uM GlcN6P (glucosamine-6-phosphate [2]) | self-cleavage kobs at 10000 uM GlcN6P (glucosamine-6-phosphate [3])
C8G U55G | < 1e-05 s⁻¹ | < 1e-05 s⁻¹ | –
A6G C8U U31G C71G | < 1e-05 s⁻¹ | – | –
G21U U46G U49C | < 1e-05 s⁻¹ | < 1e-05 s⁻¹ | –
A14C A36U A42G | < 1e-05 s⁻¹ | < 1e-05 s⁻¹ | < 1e-05 s⁻¹
A6C G59C G60U | < 1e-05 s⁻¹ | < 1e-05 s⁻¹ | –
G13U U31C G43C | < 1e-05 s⁻¹ | < 1e-05 s⁻¹ | < 1e-05 s⁻¹
A22G A36G U56C C70G | < 1e-05 s⁻¹ | < 1e-05 s⁻¹ | –
U30A G60U C71A | < 1e-05 s⁻¹ | < 1e-05 s⁻¹ | –
U31G G44U G62U | < 1e-05 s⁻¹ | < 1e-05 s⁻¹ | –
C10A G44A U47C | < 1e-05 s⁻¹ | – | –
A6G G37C G43A U46C | < 1e-05 s⁻¹ | – | –
A6G G62U C71G | < 1e-05 s⁻¹ | – | –
A42U G60C C61U | < 1e-05 s⁻¹ | – | –
A15U C16G U46C | < 1e-05 s⁻¹ | – | –
A6G G9U | < 1e-05 s⁻¹ | < 1e-05 s⁻¹ | < 1e-05 s⁻¹
C11U G32U A33C | < 1e-05 s⁻¹ | < 1e-05 s⁻¹ | –
C8A G13U C58A U65G C67G | < 1e-05 s⁻¹ | – | –
A6G A15C C34A A36U | < 1e-05 s⁻¹ | < 1e-05 s⁻¹ | –
G13C G43A U49G A52G | < 1e-05 s⁻¹ | < 1e-05 s⁻¹ | –
C11A A12U U47A | 0.000122 ± 2.6e-05 s⁻¹ | – | –
U30A G41U A48U | < 1e-05 s⁻¹ | < 1e-05 s⁻¹ | –
G7U A12C U49C | < 1e-05 s⁻¹ | – | –
